According to paper PMC4138556:

Target: D/D domain of human regulatory RIIα subunits of PKA (human)
Experiment: AlphaScreen or HTRF

Sequence of D/D domain of human regulatory RIIα subunits of PKA (human) (P13861 2-44): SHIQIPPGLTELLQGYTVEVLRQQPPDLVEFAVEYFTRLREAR

An IC50 of 12.7 nM was found for peptide AKAP18δ-L314E in this work.
